Reference: patent US20180155451A1 (published 2018)

T1: FcγRIIb (human, UniProt P31994 43-217)
T1 construct: extracellular domain; Soluble extracellular domain with C-terminal His tag, used as analyte in Biacore; also called FcgRIIb; 2b; not shown: His tag attached to the C terminus
T1 sequence (looked up): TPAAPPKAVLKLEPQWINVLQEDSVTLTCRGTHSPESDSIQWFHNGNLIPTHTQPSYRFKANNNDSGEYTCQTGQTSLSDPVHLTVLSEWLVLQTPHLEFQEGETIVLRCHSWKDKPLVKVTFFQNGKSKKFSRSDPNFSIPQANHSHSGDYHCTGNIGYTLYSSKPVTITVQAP


Legend:
FcγRIa [1] = molecular target: T2, FcγRIa (human, UniProt P12314 16-292); assay: SPR (Biacore), antibody captured on antigen peptide, FcγR as analyte; relative to GpH7-A5/GpH7-B3/GpL16-k0 = 100
T2 construct: extracellular domain; Soluble extracellular domain with C-terminal His tag, used as analyte in Biacore; also called FcgRI; 1a; not shown: His tag attached to the C terminus

FcγRIIb = molecular target: T1, FcγRIIb; assay: as above
FcγRIa [2] = molecular target: T2, FcγRIa; assay: SPR (Biacore); He/Con_1a divided by He/Con_2b (FcγRIa against FcγRIIb)

T2 sequence (P12314 16-292): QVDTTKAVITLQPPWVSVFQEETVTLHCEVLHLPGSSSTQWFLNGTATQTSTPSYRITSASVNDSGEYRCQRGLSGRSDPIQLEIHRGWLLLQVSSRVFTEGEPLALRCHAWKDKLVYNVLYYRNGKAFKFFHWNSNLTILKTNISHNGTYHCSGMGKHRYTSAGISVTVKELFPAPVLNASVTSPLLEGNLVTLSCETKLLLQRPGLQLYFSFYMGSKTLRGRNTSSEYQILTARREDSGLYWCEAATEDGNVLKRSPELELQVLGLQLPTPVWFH

| Binder | He/Con_1a (FcγRIa [1]) | He/Con_2b (FcγRIIb) | Ia/IIb He_1a/2b (FcγRIa [2]) [ratio] |
| --- | --- | --- | --- |
| GpH7-A5/GpH7-B3 variant G237_06M/GpL16-k0 (antibody, human IgG1, kappa, Heterodimerized IgG1; mutation in the GpH7-B3 H chain only; also called He Ab) heavy 1: not shown heavy 2: not shown light: DIVMTQSPLSLPVTPGEPASISCQASESLVHSNRNTYLHWYLQKPGQSPQLLIYKVSNRFSGVPDRFSGSGSGTDFTLKISRVEAEDVGVYYCSQNTHVPPTFGQGTKVEIERTVAAPSVFIFPPSDEQLKSGTASVVCLLNNFYPREAKVQWKVDNALQSGNSQESVTEQDSKDSTYSLSSTLTLSKADYEKHKVYACEVTHQGLSSPVTKSFNRGEC | 81.6 % of control | 130 % of control | 0.63 |
| GpH7-A5/GpH7-B3 variant G237_15Y/GpL16-k0 (antibody, human IgG1, kappa, Heterodimerized IgG1; mutation in the GpH7-B3 H chain only; also called He Ab) heavy 1: not shown heavy 2: not shown light: DIVMTQSPLSLPVTPGEPASISCQASESLVHSNRNTYLHWYLQKPGQSPQLLIYKVSNRFSGVPDRFSGSGSGTDFTLKISRVEAEDVGVYYCSQNTHVPPTFGQGTKVEIERTVAAPSVFIFPPSDEQLKSGTASVVCLLNNFYPREAKVQWKVDNALQSGNSQESVTEQDSKDSTYSLSSTLTLSKADYEKHKVYACEVTHQGLSSPVTKSFNRGEC | 79.6 % of control | 152 % of control | 0.52 |
| GpH7-A5/GpH7-B3 variant G237_08L/GpL16-k0 (antibody, human IgG1, kappa, Heterodimerized IgG1; mutation in the GpH7-B3 H chain only; also called He Ab) heavy 1: not shown heavy 2: not shown light: DIVMTQSPLSLPVTPGEPASISCQASESLVHSNRNTYLHWYLQKPGQSPQLLIYKVSNRFSGVPDRFSGSGSGTDFTLKISRVEAEDVGVYYCSQNTHVPPTFGQGTKVEIERTVAAPSVFIFPPSDEQLKSGTASVVCLLNNFYPREAKVQWKVDNALQSGNSQESVTEQDSKDSTYSLSSTLTLSKADYEKHKVYACEVTHQGLSSPVTKSFNRGEC | 79.6 % of control | 148 % of control | 0.54 |
| GpH7-A5/GpH7-B3 variant G237_20W/GpL16-k0 (antibody, human IgG1, kappa, Heterodimerized IgG1; mutation in the GpH7-B3 H chain only; also called He Ab) heavy 1: not shown heavy 2: not shown light: DIVMTQSPLSLPVTPGEPASISCQASESLVHSNRNTYLHWYLQKPGQSPQLLIYKVSNRFSGVPDRFSGSGSGTDFTLKISRVEAEDVGVYYCSQNTHVPPTFGQGTKVEIERTVAAPSVFIFPPSDEQLKSGTASVVCLLNNFYPREAKVQWKVDNALQSGNSQESVTEQDSKDSTYSLSSTLTLSKADYEKHKVYACEVTHQGLSSPVTKSFNRGEC | 78.4 % of control | 193 % of control | 0.41 |
| GpH7-A5/GpH7-B3 variant G237_10E/GpL16-k0 (antibody, human IgG1, kappa, Heterodimerized IgG1; mutation in the GpH7-B3 H chain only; also called He Ab) heavy 1: not shown heavy 2: not shown light: DIVMTQSPLSLPVTPGEPASISCQASESLVHSNRNTYLHWYLQKPGQSPQLLIYKVSNRFSGVPDRFSGSGSGTDFTLKISRVEAEDVGVYYCSQNTHVPPTFGQGTKVEIERTVAAPSVFIFPPSDEQLKSGTASVVCLLNNFYPREAKVQWKVDNALQSGNSQESVTEQDSKDSTYSLSSTLTLSKADYEKHKVYACEVTHQGLSSPVTKSFNRGEC | 75.1 % of control | 114 % of control | 0.66 |
| GpH7-A5/GpH7-B3 variant G237_18N/GpL16-k0 (antibody, human IgG1, kappa, Heterodimerized IgG1; mutation in the GpH7-B3 H chain only; also called He Ab) heavy 1: not shown heavy 2: not shown light: DIVMTQSPLSLPVTPGEPASISCQASESLVHSNRNTYLHWYLQKPGQSPQLLIYKVSNRFSGVPDRFSGSGSGTDFTLKISRVEAEDVGVYYCSQNTHVPPTFGQGTKVEIERTVAAPSVFIFPPSDEQLKSGTASVVCLLNNFYPREAKVQWKVDNALQSGNSQESVTEQDSKDSTYSLSSTLTLSKADYEKHKVYACEVTHQGLSSPVTKSFNRGEC | 82.5 % of control | 180 % of control | 0.46 |
| GpH7-A5/GpH7-B3 variant G237_19Q/GpL16-k0 (antibody, human IgG1, kappa, Heterodimerized IgG1; mutation in the GpH7-B3 H chain only; also called He Ab) heavy 1: not shown heavy 2: not shown light: DIVMTQSPLSLPVTPGEPASISCQASESLVHSNRNTYLHWYLQKPGQSPQLLIYKVSNRFSGVPDRFSGSGSGTDFTLKISRVEAEDVGVYYCSQNTHVPPTFGQGTKVEIERTVAAPSVFIFPPSDEQLKSGTASVVCLLNNFYPREAKVQWKVDNALQSGNSQESVTEQDSKDSTYSLSSTLTLSKADYEKHKVYACEVTHQGLSSPVTKSFNRGEC | 82.8 % of control | 108 % of control | 0.77 |
| GpH7-A5/GpH7-B3 variant G237_09D/GpL16-k0 (antibody, human IgG1, kappa, Heterodimerized IgG1; mutation in the GpH7-B3 H chain only; also called He Ab) heavy 1: not shown heavy 2: not shown light: DIVMTQSPLSLPVTPGEPASISCQASESLVHSNRNTYLHWYLQKPGQSPQLLIYKVSNRFSGVPDRFSGSGSGTDFTLKISRVEAEDVGVYYCSQNTHVPPTFGQGTKVEIERTVAAPSVFIFPPSDEQLKSGTASVVCLLNNFYPREAKVQWKVDNALQSGNSQESVTEQDSKDSTYSLSSTLTLSKADYEKHKVYACEVTHQGLSSPVTKSFNRGEC | 84 % of control | 223 % of control | 0.38 |

Results, then the binder that gave them:

| He/Con_1a (FcγRIa [1]) | He/Con_2b (FcγRIIb) | Ia/IIb He_1a/2b (FcγRIa [2]) [ratio] | Binder |
| --- | --- | --- | --- |
| 109 % of control | 167 % of control | 0.65 | GpH7-A5/GpH7-B3 variant H268_02A/GpL16-k0 (antibody, human IgG1, kappa, Heterodimerized IgG1; mutation in the GpH7-B3 H chain only; also called He Ab) heavy 1: not shown heavy 2: not shown light: DIVMTQSPLSLPVTPGEPASISCQASESLVHSNRNTYLHWYLQKPGQSPQLLIYKVSNRFSGVPDRFSGSGSGTDFTLKISRVEAEDVGVYYCSQNTHVPPTFGQGTKVEIERTVAAPSVFIFPPSDEQLKSGTASVVCLLNNFYPREAKVQWKVDNALQSGNSQESVTEQDSKDSTYSLSSTLTLSKADYEKHKVYACEVTHQGLSSPVTKSFNRGEC |
| 102 % of control | 174 % of control | 0.59 | GpH7-A5/GpH7-B3 variant P238_06M/GpL16-k0 (antibody, human IgG1, kappa, Heterodimerized IgG1; mutation in the GpH7-B3 H chain only; also called He Ab) heavy 1: not shown heavy 2: not shown light: DIVMTQSPLSLPVTPGEPASISCQASESLVHSNRNTYLHWYLQKPGQSPQLLIYKVSNRFSGVPDRFSGSGSGTDFTLKISRVEAEDVGVYYCSQNTHVPPTFGQGTKVEIERTVAAPSVFIFPPSDEQLKSGTASVVCLLNNFYPREAKVQWKVDNALQSGNSQESVTEQDSKDSTYSLSSTLTLSKADYEKHKVYACEVTHQGLSSPVTKSFNRGEC |
| 101 % of control | 204 % of control | 0.49 | GpH7-A5/GpH7-B3 variant P238_08L/GpL16-k0 (antibody, human IgG1, kappa, Heterodimerized IgG1; mutation in the GpH7-B3 H chain only; also called He Ab) heavy 1: not shown heavy 2: not shown light: DIVMTQSPLSLPVTPGEPASISCQASESLVHSNRNTYLHWYLQKPGQSPQLLIYKVSNRFSGVPDRFSGSGSGTDFTLKISRVEAEDVGVYYCSQNTHVPPTFGQGTKVEIERTVAAPSVFIFPPSDEQLKSGTASVVCLLNNFYPREAKVQWKVDNALQSGNSQESVTEQDSKDSTYSLSSTLTLSKADYEKHKVYACEVTHQGLSSPVTKSFNRGEC |
| 101 % of control | 312 % of control | 0.32 | GpH7-A5/GpH7-B3 variant P238_04F/GpL16-k0 (antibody, human IgG1, kappa, Heterodimerized IgG1; mutation in the GpH7-B3 H chain only; also called He Ab) heavy 1: not shown heavy 2: not shown light: DIVMTQSPLSLPVTPGEPASISCQASESLVHSNRNTYLHWYLQKPGQSPQLLIYKVSNRFSGVPDRFSGSGSGTDFTLKISRVEAEDVGVYYCSQNTHVPPTFGQGTKVEIERTVAAPSVFIFPPSDEQLKSGTASVVCLLNNFYPREAKVQWKVDNALQSGNSQESVTEQDSKDSTYSLSSTLTLSKADYEKHKVYACEVTHQGLSSPVTKSFNRGEC |
| 92.8 % of control | 147 % of control | 0.63 | GpH7-A5/GpH7-B3 variant L235_20W/GpL16-k0 (antibody, human IgG1, kappa, Heterodimerized IgG1; mutation in the GpH7-B3 H chain only; also called He Ab) heavy 1: not shown heavy 2: not shown light: DIVMTQSPLSLPVTPGEPASISCQASESLVHSNRNTYLHWYLQKPGQSPQLLIYKVSNRFSGVPDRFSGSGSGTDFTLKISRVEAEDVGVYYCSQNTHVPPTFGQGTKVEIERTVAAPSVFIFPPSDEQLKSGTASVVCLLNNFYPREAKVQWKVDNALQSGNSQESVTEQDSKDSTYSLSSTLTLSKADYEKHKVYACEVTHQGLSSPVTKSFNRGEC |
| 97.1 % of control | 149 % of control | 0.65 | GpH7-A5/GpH7-B3 variant L235_15Y/GpL16-k0 (antibody, human IgG1, kappa, Heterodimerized IgG1; mutation in the GpH7-B3 H chain only; also called He Ab) heavy 1: not shown heavy 2: not shown light: DIVMTQSPLSLPVTPGEPASISCQASESLVHSNRNTYLHWYLQKPGQSPQLLIYKVSNRFSGVPDRFSGSGSGTDFTLKISRVEAEDVGVYYCSQNTHVPPTFGQGTKVEIERTVAAPSVFIFPPSDEQLKSGTASVVCLLNNFYPREAKVQWKVDNALQSGNSQESVTEQDSKDSTYSLSSTLTLSKADYEKHKVYACEVTHQGLSSPVTKSFNRGEC |
| 110 % of control | 239 % of control | 0.46 | GpH7-A5/GpH7-B3 variant H268_09D/GpL16-k0 (antibody, human IgG1, kappa, Heterodimerized IgG1; mutation in the GpH7-B3 H chain only; also called He Ab) heavy 1: not shown heavy 2: not shown light: DIVMTQSPLSLPVTPGEPASISCQASESLVHSNRNTYLHWYLQKPGQSPQLLIYKVSNRFSGVPDRFSGSGSGTDFTLKISRVEAEDVGVYYCSQNTHVPPTFGQGTKVEIERTVAAPSVFIFPPSDEQLKSGTASVVCLLNNFYPREAKVQWKVDNALQSGNSQESVTEQDSKDSTYSLSSTLTLSKADYEKHKVYACEVTHQGLSSPVTKSFNRGEC |
| 97.8 % of control | 150 % of control | 0.65 | GpH7-A5/GpH7-B3 variant L234_09D/GpL16-k0 (antibody, human IgG1, kappa, Heterodimerized IgG1; mutation in the GpH7-B3 H chain only; also called He Ab) heavy 1: not shown heavy 2: not shown light: DIVMTQSPLSLPVTPGEPASISCQASESLVHSNRNTYLHWYLQKPGQSPQLLIYKVSNRFSGVPDRFSGSGSGTDFTLKISRVEAEDVGVYYCSQNTHVPPTFGQGTKVEIERTVAAPSVFIFPPSDEQLKSGTASVVCLLNNFYPREAKVQWKVDNALQSGNSQESVTEQDSKDSTYSLSSTLTLSKADYEKHKVYACEVTHQGLSSPVTKSFNRGEC |
| 84.8 % of control | 106 % of control | 0.8 | GpH7-A5/GpH7-B3 variant L235_09D/GpL16-k0 (antibody, human IgG1, kappa, Heterodimerized IgG1; mutation in the GpH7-B3 H chain only; also called He Ab) heavy 1: not shown heavy 2: not shown light: DIVMTQSPLSLPVTPGEPASISCQASESLVHSNRNTYLHWYLQKPGQSPQLLIYKVSNRFSGVPDRFSGSGSGTDFTLKISRVEAEDVGVYYCSQNTHVPPTFGQGTKVEIERTVAAPSVFIFPPSDEQLKSGTASVVCLLNNFYPREAKVQWKVDNALQSGNSQESVTEQDSKDSTYSLSSTLTLSKADYEKHKVYACEVTHQGLSSPVTKSFNRGEC |
| 107 % of control | 144 % of control | 0.75 | GpH7-A5/GpH7-B3 variant H268_01G/GpL16-k0 (antibody, human IgG1, kappa, Heterodimerized IgG1; mutation in the GpH7-B3 H chain only; also called He Ab) heavy 1: not shown heavy 2: not shown light: DIVMTQSPLSLPVTPGEPASISCQASESLVHSNRNTYLHWYLQKPGQSPQLLIYKVSNRFSGVPDRFSGSGSGTDFTLKISRVEAEDVGVYYCSQNTHVPPTFGQGTKVEIERTVAAPSVFIFPPSDEQLKSGTASVVCLLNNFYPREAKVQWKVDNALQSGNSQESVTEQDSKDSTYSLSSTLTLSKADYEKHKVYACEVTHQGLSSPVTKSFNRGEC |
